Measurements as given in PMC3701943.

Biological target: W590S murine ABCA1-GFP fusion (murine) (UniProt P41233)
Test: flow cytometry on cells

Sequence of UniProt P41233 (P41233 whole entry W590S, the tested form may be a part): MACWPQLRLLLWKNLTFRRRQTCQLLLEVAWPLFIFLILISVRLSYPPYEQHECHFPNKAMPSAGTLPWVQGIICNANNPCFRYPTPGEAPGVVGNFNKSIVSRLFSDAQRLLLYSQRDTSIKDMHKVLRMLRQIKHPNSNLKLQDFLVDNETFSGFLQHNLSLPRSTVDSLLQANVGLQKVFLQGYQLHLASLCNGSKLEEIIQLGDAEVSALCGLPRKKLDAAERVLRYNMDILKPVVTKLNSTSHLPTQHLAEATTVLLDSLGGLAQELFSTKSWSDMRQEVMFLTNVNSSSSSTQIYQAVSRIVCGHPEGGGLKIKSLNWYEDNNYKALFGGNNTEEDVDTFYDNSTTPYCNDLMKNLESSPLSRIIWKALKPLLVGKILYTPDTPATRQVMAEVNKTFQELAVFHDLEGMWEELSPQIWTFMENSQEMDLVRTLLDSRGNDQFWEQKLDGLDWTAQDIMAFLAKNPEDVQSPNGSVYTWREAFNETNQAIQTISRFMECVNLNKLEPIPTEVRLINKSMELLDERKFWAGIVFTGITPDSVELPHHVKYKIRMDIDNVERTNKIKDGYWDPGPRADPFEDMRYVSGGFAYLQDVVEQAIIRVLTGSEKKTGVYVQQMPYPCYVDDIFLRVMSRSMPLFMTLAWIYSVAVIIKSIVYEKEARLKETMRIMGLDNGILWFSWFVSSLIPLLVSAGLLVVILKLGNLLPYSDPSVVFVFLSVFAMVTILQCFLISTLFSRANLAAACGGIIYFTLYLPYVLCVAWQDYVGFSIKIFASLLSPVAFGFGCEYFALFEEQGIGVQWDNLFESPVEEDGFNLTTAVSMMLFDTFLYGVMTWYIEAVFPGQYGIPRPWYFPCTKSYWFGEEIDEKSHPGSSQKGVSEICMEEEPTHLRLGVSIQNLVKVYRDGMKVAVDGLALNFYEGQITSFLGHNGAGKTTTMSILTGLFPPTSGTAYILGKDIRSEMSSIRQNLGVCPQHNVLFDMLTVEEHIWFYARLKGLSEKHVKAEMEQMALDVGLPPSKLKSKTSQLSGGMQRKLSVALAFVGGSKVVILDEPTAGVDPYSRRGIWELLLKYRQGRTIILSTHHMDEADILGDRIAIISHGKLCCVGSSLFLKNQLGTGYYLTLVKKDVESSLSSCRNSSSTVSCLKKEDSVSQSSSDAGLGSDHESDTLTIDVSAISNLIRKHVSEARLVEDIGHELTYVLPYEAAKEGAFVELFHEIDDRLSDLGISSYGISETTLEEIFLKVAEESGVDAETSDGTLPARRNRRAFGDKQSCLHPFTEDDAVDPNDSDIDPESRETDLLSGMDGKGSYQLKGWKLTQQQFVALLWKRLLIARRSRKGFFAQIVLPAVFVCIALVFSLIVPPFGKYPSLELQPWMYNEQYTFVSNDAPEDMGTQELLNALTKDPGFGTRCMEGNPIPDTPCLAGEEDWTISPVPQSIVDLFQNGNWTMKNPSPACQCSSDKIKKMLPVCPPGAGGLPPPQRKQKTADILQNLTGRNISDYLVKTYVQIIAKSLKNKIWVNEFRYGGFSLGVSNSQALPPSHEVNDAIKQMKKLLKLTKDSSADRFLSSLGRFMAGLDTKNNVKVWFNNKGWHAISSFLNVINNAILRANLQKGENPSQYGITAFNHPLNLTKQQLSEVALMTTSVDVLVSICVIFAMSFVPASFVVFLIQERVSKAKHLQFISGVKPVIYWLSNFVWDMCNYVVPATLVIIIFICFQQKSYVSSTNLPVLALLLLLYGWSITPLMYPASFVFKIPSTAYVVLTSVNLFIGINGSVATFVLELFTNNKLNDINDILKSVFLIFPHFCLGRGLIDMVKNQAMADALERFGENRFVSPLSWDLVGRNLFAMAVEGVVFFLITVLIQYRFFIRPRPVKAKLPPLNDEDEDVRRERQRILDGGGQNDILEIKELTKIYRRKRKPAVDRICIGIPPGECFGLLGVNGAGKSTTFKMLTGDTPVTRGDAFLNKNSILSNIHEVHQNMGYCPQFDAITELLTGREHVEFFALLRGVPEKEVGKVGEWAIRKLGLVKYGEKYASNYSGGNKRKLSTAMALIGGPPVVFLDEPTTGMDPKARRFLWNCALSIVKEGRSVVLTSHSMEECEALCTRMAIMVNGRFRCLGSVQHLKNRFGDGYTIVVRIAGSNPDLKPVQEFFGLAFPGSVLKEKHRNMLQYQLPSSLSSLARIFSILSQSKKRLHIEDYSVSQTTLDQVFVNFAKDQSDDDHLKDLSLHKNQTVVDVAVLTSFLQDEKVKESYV

Question: With “Alexa647-labeled apoAI (from UniProt P02647 25-267) (ligand)” as the substance, how does the fold apoAI binding against control HEK cells read?
Answer: 6 fold
